Results: paper PMC4831045

Experiments:
[1] = molecular target: cNTnC N-terminal domain (Homo sapiens) (UniProt P63316); details: cited from earlier work
[2] = molecular target: cTnC(C35S)-i9: cardiac troponin C (C35S) with the levosimendan analog i9 covalently bound to C84 (UniProt P63316); test: NMR titration; 19F NMR; 530 μM Ca2+-saturated cTnC(C35S)-i9 in NMR buffer (100 mM KCl, 10 mM imidazole, 2 mM CaCl2, pH 6.9), 30 °C, titrated with switch-cTnI (144–163) 0 to 1,540 μM; area under the F4′ signal of i9 fit with one-to-one stoichiometry (xcrvfit)

Chain of switch-cTnI 144-163 (P19429 144-163): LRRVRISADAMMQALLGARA

Kd [2] [µM]	Substance	Kd [1] [µM]
	switch-cTnI 144-163 (from UniProt P19429)	26
74	switch-cTnI (residues 144–163) (peptide)	
